For one assay, the target named is PL37-MAP (Homo sapiens, UniProt P01031). Put plainly: Surface plasmon resonance (Biacore) binding of C-peptides to immobilized PL37-MAP. As to conditions: PBS, 25° C., 10 μl/min, EA-blocked cell subtracted. As to the method: (§1) Binding interactions between PL37 or C5a with C-peptides were evaluated using surface plasmon resonance (SPR) technology with the Biacore system. PL37 and C5a were covalently immobilized on the CM5 sensor chip by amine coupling methods using N-ethyl-N-(dimethylaminopropyl)carbodiimide/N-hydroxysuccinimide (EDC/NHS) according to the manufacturer's instructions. We activated the surface of the CM5 sensor chip with EDC/NHS for 20 min before injection with PL37-MAP (200 μg/ml in 10 mM sodium carbonate buffer, pH 8.5, over flow cell 2) or C5a (100 μg/ml in 10 mM acetate buffer, pH 5, over flow cell 3). Afterwards, excess NHS was deactivated for 20 min with 1 M ethanolamine hydrochloride (EA), pH 8.5. The reference flow cell was activated with EDC/NHS, and blocked with EA. Coupling was performed at a flow rate of 5 μl/min at 25° C. in PBS. Analyte (30 μl of C-peptide A or B) was injected at 10 μl/min at 25° C. in PBS. Binding interactions were determined by passing samples simultaneously over both the EA-blocked cell and the flow cell with immobilized PL37 or C5a so as to obtain units of resonance response (RU) by subtraction of the background using Biacore software (BIA evaluation).
The Biacore instrument which uses SPR technology measures association and dissociation in real time of an unlabeled analyte with an immobilized ligand. […]
A general note: Surface plasmon resonance follows binding to a sensor surface in real time, without labels.

Assay [1] addresses T1, C5a (Homo sapiens, UniProt P01031).
T1 sequence (P01031 678-751 limits assumed): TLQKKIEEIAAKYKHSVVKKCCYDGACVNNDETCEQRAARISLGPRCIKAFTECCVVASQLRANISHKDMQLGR
Put plainly: Intracellular Ca++ mobilization in neutrophils triggered by C5a (calcium imaging). The class given is cell-based. As to conditions: 0.7 nM C5a, human neutrophils. As to the method:
Neutrophils were isolated from fresh human blood with 0.2% EDTA as an anticoagulant. Whole blood was collected from a healthy volunteer (a collaborator of this study) via vein puncture. A 2.4 ml aliquot of blood was then layered onto 2 ml Mono-Poly Resolving Medium (Dainihon Seiyaku, Tokyo, Japan) in a centrifuge tube and centrifuged at 400 g for 20 min at room temperature. The polymorphonuclear leukocytes (neutrophils) were then harvested and the cell fraction was washed with Hanks' balanced salt solution (HBSS).
The isolated neutrophils were loaded with 2 μM Fura-2/AM (Molecular Probes, Eugene, Oreg.) mixed with 0.02% Pluronic F-127 (Molecular Probes) and 0.2% DMSO in HBSS for 40 min at 37° C. The suspension was agitated to prevent sedimentation. After loading, the cells were washed with HBSS twice and suspended in HBSS containing 0.3% BSA (HBSS/BSA). Approximately 1×10^6 cells in 900 μl HBSS/BSA were added to a poly-L-lysine-coated 35 mm Petri dish and allowed to attach to the bottom of the dish for 30 min. Changes in intracellular calcium concentrations in response to C5a or a mixture of peptides (C-peptides and C5a) were determined by monitoring the ratio of fluorescence light emission at 5I0 nm as a result of excitation at 340 and 380 nm at 37° C. using an ARGUS HiSCA calcium imaging system (Hamamatsu Photonics, Hamamatsu, Japan). The mixture of peptides and C5a was incubated in an Eppendorf tube on ice for 30 min in the HBSS solution and then applied to the cells after a 2 min baseline recording.
The effect of C-peptides on C5a function was analyzed by measuring Ca^++ mobilization using an ARUGUS HiSCA calcium imaging system. Administration of 0.7 nM recombinant human C5a (RhC5a) induced a transient increase in the level of intracellular Ca^++ of human neutrophils (FIG. 3a). The level of this activation was about 50% of the maximum achieved with higher concentrations of C5a. A mixture of C-peptide and C5a was incubated in an Eppendorf tube on ice for 30 min in the HBSS solution and then applied to the cells. […]

Assay [2] deals with T1, C5a. Put plainly: Surface plasmon resonance (Biacore) binding of C-peptides to immobilized C5a. As to conditions: PBS, 25° C., 10 μl/min, EA-blocked cell subtracted. Set-up: Complement anaphylatoxin C5a is a 74-amino acid peptide generated from the fifth component of complement (C5). As to the method:
as §1
Binding of C-peptides to C5a was also examined. C5a was covalently coupled to a CM5 sensor chip resulting in a net increase of 5,770 RU. […]

“Also recorded” adds a separate entry of the source.

For ASTAPARAGLPRLPKFF [Pep-B], in the assay with PL37-MAP, the “Binding to PL37-MAP-coupled flow cell” value is “did not”. In addition, the “Inhibition of C5a-triggered Ca++ mobilization” value in the assay with C5a [1] (70 nM C-peptide) and in the assay with C5a [1] (700 nM C-peptide) was “failed to cause inhibition; also recorded: no inhibition” each time. The “Binding to C5a-coupled flow cell” value in the assay with C5a [2] is “did not”.

(Values after US7763708B2, “Methods and compositions for modulating C5-a-mediated inflammatory responses” (Institute for Protein Science Co., Ltd., priority 2004, dated 2010).)
